The values that follow come from IntAct's records for PubMed 19109891.

First the molecules themselves.
B1: Dystrophin (Homo sapiens), P11532-5 (parent)
chain: MREQLKGHETQTTCWDHPKMTELYQSLADLNNVRFSAYRTAMKLRRLQKALCLDLLSLSAACDALDQHNLKQNDQPMDILQIINCLTTIYDRLEQEHNNLVNVPLCVDMCLNWLLNVYDTGRTGRIRVLSFKTGIISLCKAHLEDKYRYLFKQVASSTGFCDQRRLGLLLHDSIQIPRQLGEVASFGGSNIEPSVRSCFQFANNKPEIEAALFLDWMRLEPQSMVWLPVLHRVAAAETAKHQAKCNICKECPIIGFRYRSLKHFNYDICQSCFFSGRVAKGHKMHYPMVEYCTPTTSGEDVRDFAKVLKNKFRTKRYFAKHPRMGYLPVQTVLEGDNMETPASSPQLSHDDTHSRIEHYASRLAEMENSNGSYLNDSISPNESIDDEHLLIQHYCQSLNQDSPLSQPRSPAQILISLESEERGELERILADLEEENRNLQAEYDRLKQQHEHKGLSPLPSPPEMMPTSPQSPRDAELIAEAKLLRQHKGRLEARMQILEDHNKQLESQLHRLRQLLEQPQAEAKVNGTTVSSPSTSLQRSDSSQPMLLRVVGSQTSDSMGEEDLLSPPQDTSTGLEEVMEQLNNSFPSSRGHNVGSLFHMADDLGRAMESLVSVMTDEEGAE

Variants of B1 are the subject of this assay. The note with it: with ank2_human ANK2, Q01484.
Sequence of ank2_human ANK2, Q01484 (Q01484 whole entry): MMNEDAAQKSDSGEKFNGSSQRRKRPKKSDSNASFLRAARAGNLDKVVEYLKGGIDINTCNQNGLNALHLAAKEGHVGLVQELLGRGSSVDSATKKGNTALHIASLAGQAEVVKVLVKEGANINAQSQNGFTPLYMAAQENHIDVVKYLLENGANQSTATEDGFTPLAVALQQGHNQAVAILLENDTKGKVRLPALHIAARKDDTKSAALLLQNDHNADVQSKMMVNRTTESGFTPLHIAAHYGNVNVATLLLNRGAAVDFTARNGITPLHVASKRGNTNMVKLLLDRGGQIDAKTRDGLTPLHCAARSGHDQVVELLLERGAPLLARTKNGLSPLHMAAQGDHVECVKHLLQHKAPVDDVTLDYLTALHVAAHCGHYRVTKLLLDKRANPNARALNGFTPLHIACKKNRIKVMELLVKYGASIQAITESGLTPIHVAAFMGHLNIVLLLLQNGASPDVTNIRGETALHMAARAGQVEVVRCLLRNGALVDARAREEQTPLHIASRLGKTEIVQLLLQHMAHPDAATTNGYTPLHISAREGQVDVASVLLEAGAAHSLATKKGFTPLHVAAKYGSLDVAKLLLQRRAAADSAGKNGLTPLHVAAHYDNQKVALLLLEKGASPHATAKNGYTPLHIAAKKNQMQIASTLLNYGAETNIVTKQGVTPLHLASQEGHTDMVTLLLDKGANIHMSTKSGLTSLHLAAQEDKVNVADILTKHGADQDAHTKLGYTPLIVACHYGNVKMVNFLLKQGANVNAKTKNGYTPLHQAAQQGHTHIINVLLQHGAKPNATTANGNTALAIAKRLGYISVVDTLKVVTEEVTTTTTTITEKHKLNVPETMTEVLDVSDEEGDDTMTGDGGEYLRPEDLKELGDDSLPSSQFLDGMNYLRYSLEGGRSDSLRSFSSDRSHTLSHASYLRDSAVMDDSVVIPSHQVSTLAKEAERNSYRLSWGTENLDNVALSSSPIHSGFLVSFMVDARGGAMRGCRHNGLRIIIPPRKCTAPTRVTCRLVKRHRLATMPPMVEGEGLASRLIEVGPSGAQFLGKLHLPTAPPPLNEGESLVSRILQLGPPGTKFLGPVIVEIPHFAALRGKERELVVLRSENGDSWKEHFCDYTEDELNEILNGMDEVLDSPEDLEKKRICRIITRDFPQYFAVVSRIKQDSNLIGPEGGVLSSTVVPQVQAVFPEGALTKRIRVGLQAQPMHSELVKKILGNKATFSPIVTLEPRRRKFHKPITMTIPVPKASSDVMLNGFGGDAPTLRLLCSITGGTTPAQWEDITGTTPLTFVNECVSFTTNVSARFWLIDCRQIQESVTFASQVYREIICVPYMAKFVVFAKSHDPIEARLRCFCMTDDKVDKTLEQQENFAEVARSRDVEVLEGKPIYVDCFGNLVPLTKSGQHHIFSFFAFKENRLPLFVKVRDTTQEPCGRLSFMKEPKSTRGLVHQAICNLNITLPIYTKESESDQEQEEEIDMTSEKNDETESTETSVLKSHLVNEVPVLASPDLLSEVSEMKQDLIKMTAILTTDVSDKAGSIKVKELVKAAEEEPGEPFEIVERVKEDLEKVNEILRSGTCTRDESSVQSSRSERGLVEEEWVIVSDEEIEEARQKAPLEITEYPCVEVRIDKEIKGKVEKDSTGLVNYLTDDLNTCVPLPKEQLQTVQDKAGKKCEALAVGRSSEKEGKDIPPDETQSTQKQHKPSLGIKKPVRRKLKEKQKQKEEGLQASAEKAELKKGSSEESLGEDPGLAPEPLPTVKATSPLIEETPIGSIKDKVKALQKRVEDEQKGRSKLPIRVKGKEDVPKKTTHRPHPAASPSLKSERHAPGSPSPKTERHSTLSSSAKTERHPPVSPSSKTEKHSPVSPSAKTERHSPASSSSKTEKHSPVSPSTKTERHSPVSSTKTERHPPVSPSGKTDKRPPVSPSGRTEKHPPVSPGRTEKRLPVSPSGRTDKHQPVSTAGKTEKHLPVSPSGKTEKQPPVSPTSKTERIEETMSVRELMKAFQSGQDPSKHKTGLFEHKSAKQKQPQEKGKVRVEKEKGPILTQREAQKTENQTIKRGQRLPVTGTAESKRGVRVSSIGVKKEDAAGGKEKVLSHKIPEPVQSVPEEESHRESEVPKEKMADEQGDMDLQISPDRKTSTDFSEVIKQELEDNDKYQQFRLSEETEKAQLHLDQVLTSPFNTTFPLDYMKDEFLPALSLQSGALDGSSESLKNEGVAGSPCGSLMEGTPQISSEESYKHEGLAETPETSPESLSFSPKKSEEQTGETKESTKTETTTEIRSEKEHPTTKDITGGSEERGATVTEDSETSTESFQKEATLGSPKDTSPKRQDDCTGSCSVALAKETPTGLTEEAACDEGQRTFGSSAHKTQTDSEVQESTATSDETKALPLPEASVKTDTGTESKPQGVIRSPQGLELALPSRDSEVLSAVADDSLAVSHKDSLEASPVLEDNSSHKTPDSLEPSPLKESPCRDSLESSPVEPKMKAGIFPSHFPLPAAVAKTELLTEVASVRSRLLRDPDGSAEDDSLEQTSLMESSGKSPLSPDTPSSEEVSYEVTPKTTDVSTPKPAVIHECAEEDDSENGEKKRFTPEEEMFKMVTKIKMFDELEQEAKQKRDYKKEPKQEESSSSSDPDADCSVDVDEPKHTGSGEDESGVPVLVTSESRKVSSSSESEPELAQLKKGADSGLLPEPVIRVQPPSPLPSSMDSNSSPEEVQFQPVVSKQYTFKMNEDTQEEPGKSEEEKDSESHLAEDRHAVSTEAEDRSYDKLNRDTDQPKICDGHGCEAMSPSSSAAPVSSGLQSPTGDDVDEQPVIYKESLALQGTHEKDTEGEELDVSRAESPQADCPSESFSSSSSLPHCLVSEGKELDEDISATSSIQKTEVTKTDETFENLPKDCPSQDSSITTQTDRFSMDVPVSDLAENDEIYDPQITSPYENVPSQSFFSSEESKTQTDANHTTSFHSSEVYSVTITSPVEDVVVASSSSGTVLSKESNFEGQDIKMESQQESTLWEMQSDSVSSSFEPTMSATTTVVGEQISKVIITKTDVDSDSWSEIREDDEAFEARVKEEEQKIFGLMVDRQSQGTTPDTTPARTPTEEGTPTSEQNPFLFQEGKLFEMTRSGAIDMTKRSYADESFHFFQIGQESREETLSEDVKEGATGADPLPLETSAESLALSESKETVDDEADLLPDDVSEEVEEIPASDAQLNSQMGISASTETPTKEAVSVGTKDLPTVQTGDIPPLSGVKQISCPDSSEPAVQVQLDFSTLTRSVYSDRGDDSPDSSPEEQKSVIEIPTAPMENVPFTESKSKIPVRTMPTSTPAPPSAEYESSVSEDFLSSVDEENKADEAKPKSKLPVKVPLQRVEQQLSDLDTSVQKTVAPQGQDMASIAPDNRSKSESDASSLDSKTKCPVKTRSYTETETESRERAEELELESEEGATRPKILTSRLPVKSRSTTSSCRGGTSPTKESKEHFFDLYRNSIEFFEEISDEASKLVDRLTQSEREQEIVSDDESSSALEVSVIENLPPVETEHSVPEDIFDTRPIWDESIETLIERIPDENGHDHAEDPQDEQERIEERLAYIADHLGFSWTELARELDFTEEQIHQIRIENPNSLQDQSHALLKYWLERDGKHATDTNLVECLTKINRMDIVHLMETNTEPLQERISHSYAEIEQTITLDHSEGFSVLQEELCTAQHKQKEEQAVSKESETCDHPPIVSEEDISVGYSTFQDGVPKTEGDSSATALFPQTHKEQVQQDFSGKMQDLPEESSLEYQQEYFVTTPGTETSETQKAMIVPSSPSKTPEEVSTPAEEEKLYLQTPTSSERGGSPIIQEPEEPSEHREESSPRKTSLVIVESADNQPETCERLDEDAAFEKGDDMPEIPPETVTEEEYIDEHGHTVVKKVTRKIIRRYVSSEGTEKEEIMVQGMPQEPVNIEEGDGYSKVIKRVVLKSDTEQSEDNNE
D267N: the “effect of a mutation on the interaction” value was “decreasing interaction”.
